Source: US20200055934A1
Read-outs that look alike come from different tables or passages of the source.

Tests used:
Assay in all cases: cell-based or functional assay
[1] = target: Receptor for Advanced Glycation Endproducts (RAGE), human, full length (human) (UniProt Q15109)
[2] = target: Receptor for Advanced Glycation Endproducts (RAGE), human, full length (human) (UniProt Q15109); remark: listed apart in the source
[3] = target: Receptor for Advanced Glycation Endproducts (RAGE), human, full length (human) (UniProt Q15109); remark: listed apart in the source

Chain of UniProt Q15109 (Q15109 23-404 limits assumed): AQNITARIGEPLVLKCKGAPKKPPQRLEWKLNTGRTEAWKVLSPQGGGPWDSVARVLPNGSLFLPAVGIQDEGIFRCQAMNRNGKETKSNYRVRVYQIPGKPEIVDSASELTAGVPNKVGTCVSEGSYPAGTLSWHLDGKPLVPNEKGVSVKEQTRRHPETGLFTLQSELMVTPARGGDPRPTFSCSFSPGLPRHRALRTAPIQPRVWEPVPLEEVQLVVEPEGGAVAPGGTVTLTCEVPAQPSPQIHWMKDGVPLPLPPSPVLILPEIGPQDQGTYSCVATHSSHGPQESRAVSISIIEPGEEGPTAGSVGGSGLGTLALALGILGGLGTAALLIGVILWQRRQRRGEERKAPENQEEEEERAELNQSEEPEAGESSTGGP

## SNIPER-MMAE (MAB11451 conjugated with vcMMAE) (antibody)
[1]
  IC50, cell viability, HEC1A endometrial cancer cells, 24 h: 10.3 µg/mL
  IC50, cell viability, HEC1A endometrial cancer cells, 48 h: 4.69 µg/mL
  IC50, cell viability, HEC1A endometrial cancer cells, 96 h: 1.02 µg/mL
  IC50, cell viability, HEC1B endometrial cancer cells, 24 h: 29 µg/mL
  IC50, cell viability, HEC1B endometrial cancer cells, 48 h: 8.65 µg/mL
  IC50, cell viability, HEC1B endometrial cancer cells, 96 h: 5.67 µg/mL
  IC50, cell viability, HEC50 endometrial cancer cells, 48 h: 7.64 µg/mL
  IC50, cell viability, HEC50 endometrial cancer cells, 96 h: 2.18 µg/mL
  IC50, cell viability, Ishikawa endometrial cancer cells, 24 h: 31 µg/mL
  IC50, cell viability, Ishikawa endometrial cancer cells, 48 h: 9.54 µg/mL
  IC50, cell viability, Ishikawa endometrial cancer cells, 96 h: 3.86 µg/mL
  IC50, cell viability, TOV112D ovarian cancer cells, 24 h: 22.6 µg/mL
  IC50, cell viability, TOV112D ovarian cancer cells, 48 h: 16.2 µg/mL
  IC50, cell viability, TOV112D ovarian cancer cells, 96 h: 0.54 µg/mL
  IC50, cell viability, healthy endometrial cells, 48 h: 10.7 µg/mL
  IC50, cell viability, healthy endometrial cells, 96 h: 15.2 µg/mL
  IC50, cell viability, healthy ovarian cells, 96 h: 41 µg/mL
[2]
  IC50, cell viability, TOV112D ovarian cancer cells, 24 h: 16.7 µg/mL

## SNIPER-MMAF (MAB11451 conjugated with mcMMAF) (antibody)
[1]
  IC50, cell viability, HEC1A endometrial cancer cells, 24 h: 24.1 µg/mL
  IC50, cell viability, HEC1A endometrial cancer cells, 48 h: 0.81 µg/mL
  IC50, cell viability, HEC1A endometrial cancer cells, 96 h: 0.74 µg/mL
  IC50, cell viability, HEC1B endometrial cancer cells, 48 h: 1.96 µg/mL
  IC50, cell viability, HEC1B endometrial cancer cells, 96 h: 1.27 µg/mL
  IC50, cell viability, HEC50 endometrial cancer cells, 24 h: 17.8 µg/mL
  IC50, cell viability, HEC50 endometrial cancer cells, 48 h: 0.86 µg/mL
  IC50, cell viability, HEC50 endometrial cancer cells, 96 h: 0.94 µg/mL
  IC50, cell viability, Ishikawa endometrial cancer cells, 24 h: 16.7 µg/mL
  IC50, cell viability, Ishikawa endometrial cancer cells, 48 h: 6.48 µg/mL
  IC50, cell viability, Ishikawa endometrial cancer cells, 96 h: 2.42 µg/mL
  IC50, cell viability, TOV112D ovarian cancer cells, 48 h: 2.51 µg/mL
  IC50, cell viability, TOV112D ovarian cancer cells, 96 h: 0.59 µg/mL
  IC50, cell viability, healthy endometrial cells, 48 h: 7.25 µg/mL
  IC50, cell viability, healthy endometrial cells, 96 h: 4.17 µg/mL
  IC50, cell viability, healthy ovarian cells, 48 h: 14.4 µg/mL
  IC50, cell viability, healthy ovarian cells, 96 h: 4.87 µg/mL
[3]
  IC50, cell viability, Ishikawa endometrial cancer cells, 24 h: 16.7 µg/mL
[2]
  IC50, cell viability, TOV112D ovarian cancer cells, 24 h: 2.5 µg/mL
